From the domain aggregation screens of Martell et al. (2025)

assay: soluble fraction after stress (log2 fold change); higher = more stays soluble; pooled small domains, quantitative proteomics; conditions: stress: 75 degC
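Further: 20 min heating vs room temperature control held 20 min.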

Row | Sequence | soluble fraction (log2)
1 | HMAAEGARNNSLFNSLRERALEVSSHNELEQIAFKMNETNIPPLRASEVISVVNSVWKNRISNQIIP | 0.266
2 | HMAAFGDLLSELRRDMNMTQDELAKVLFVSPGTISNYENNIHFPDVPKLKQIAQYFGVTTDYLLG | -0.519
3 | HMAAINTYQVRKIYAIAGALGMKSRDGDDALHDLVFGMTGKQHISGLTSAEAYDVIAELEKKQ | -1.6
4 | HMAALKVAVLTVSDTRTQETDTSGAFLEGALREAGHEIADRQIVIDDVYQLRAIVSQWIADPEVEVILT | -0.121
5 | HMAALTADEAKQIALKHAGVAESDVQRLKVEQDRDDGRLLYEVEWDVGRTEYSYEIDANTGDILNYEKDV | -0.000944
6 | HMAANKIDEDRNTELLQVIQNKFPDADAATKKSVKEIMKEHDIPNFKNADDIPTAVLEQIVKVLNQ | -0.378
7 | HMAAPLTDRETEVLTLLARGLINKQIAEELHIGLTTVITHRRNIMEKLRVRSLAELILRAVAAGYVDAGR | -1.79
8 | HMAARKDLIAGEDAEGRLDAWLAAALDGEFSRNRVKALIEQGAVAINDVAVTEPKRKIRPGDRLSIVLPEP | 0.325
9 | HMAARLMRALIPYAQGGLLAKLHEDGQVLSEEYTGEGIEVKALADEQLFGRLTVQLGEQAVSWQD | -0.163
10 | HMAASTPGTVTGSVVNVRPDPSTNNDRIGVIYQGTKVEILAQVGEWYNIQFGPVSGWVHKDYISTGA | -0.421
11 | HMAATISPEIQAEAEKAAALGVESIKNFMASLKEKNPEQHALFSDSEKRRLYAIARKADLNTTQQG | 0.595
12 | HMAAVPQPQRSETIVYIGGRKFYVHTVQAGETLYSIARLYGVSEQTLVANNPTMADVVKADQNVRIPVPA | -1.96
13 | HMAAYRLIPLGNSNKDFETYQEAIQYMRDKLDESSKAFEEGKQNWVYSGRVYGVPWSDGRTTFTVDLVPKV | 0.594
14 | HMADASVTAYFKIAEDRLQGRLPDTFSEASLKARYQLTPAQLTAVLTRIAQEGWAERKPGYGWAFSSML | -1.62
15 | HMADEIMYPVQVNGKVRAEIFVAADQSKNKELVLEMAKSEERVQKYLEEGNLIKEIFVPGRIVNLVI | 0.162
16 | HMADEIQIGLQKAIQSLPEKQKLVFSMRYYDEIPYDEMSKILDMSVGTLKTNYHYAKQKIEDFLQNH | -1.22
17 | HMADFIGMNATVTERIFPQGFGRISFVYEGNSISEPARSEDGKEIPTGTSVVVLEVRDKVYIVQPL | -2.35
18 | HMADGDIIPEGQRDATLASLAGSMRARGMTEAEILAALQVTNETRVRPPMALADLERIARSIGRYEPGK | 0.0569
19 | HMADKGTITNQQEKILKALILFPEGASIEEIQKAADLGIDKRQFQRRLNTLIESGQINRTGKSRGTKYHTI | 0.201
20 | HMADLKVGFVHRAGSVLERELDDVLEALEMYRSALAIDPSHKPSLDALTRISQLADYREQAAEILEPLPR | -0.767
21 | HMADLNFHQQIRSLPPEQQEILLLRFGQELTLRQIAQVTGVPLRTVQSRLRAALKKLKSQLEKEE | -0.696
22 | HMADLPQATALADVKGDVQMQGIQFGYDPEKIIIHDLNLHARPGSLVAIVGPTGAGKTTIINLLMRFYD | -1.75
23 | HMADLVYLRKRLQDAIAQLPEDMRTAYTLFQIARRSIREIAELTGASESLVKVRIHRAKGKLQELLEDLR | -2.57
24 | HMADPAVLIAELFRAMPEKRFSVKNLISATGAETREQKDYVREVVHSLSREGMIEQVAEGKYRLSASE | 0.299

Row | Sequence | soluble fraction (log2)
25 | HMADQVLVMTRAVGQGDIVRNADIGLTSVAVDRAVATIPASQLDKIVGRHALVDLSPGQLLGSHSVGE | 0.147
26 | HMADRDKYIIMGQQLLRAAFEHFGKKATDKALENAANKLRISDVPELYARLGSAELQPRDVINVIFPD | -0.308
27 | HMADRLITLSEVASLLRVSRHTVQAWISPSSPNHRPEFAIMARHAGRRTVFIEAEVTAWLDQRRG | -2.14
28 | HMADVSPEAQHKMVEAFAQFGVTKEHIEQRIQRRLDAIQPAQMVTLKRIFASLRDGMSTPAEWFE | -0.639
29 | HMADYSGYLGKKGKVIAPLRPAGTALIDGERVDVVSFGDYIDKDSEIEVVKIEGSKLLVKKY | 0.28
30 | HMAEAIVMSTAAPVKSSPDPQSKDIFVLHEGTKVAVGDSLGDWREIRIADGNKGWVLVSAIEMI | 0.0397
31 | HMAEDGNMTFEEYAKRWLARQVRYAPSTLESYRRMLGRVYPFIGAIPINRLRPIALENLLAELRKRT | -0.582
32 | HMAEEFESMTEARRLELARLVDSRGFVRVTDAAEELGVSDVTIRGDLSELERRGLLTRVHGGAMPVT | -0.00431
33 | HMAEKEYYYATDALNLRQGPGMEHTVKGEVVLGERVALLGLEGKWAKIQNAQGTTGYVFSAYLAPS | -0.196
34 | HMAEMLENQLKHAKSKQEANEYIAAAIGGVSDDDPDKEYLVAAYNEISKEFHHSSAYHRLPDT | 0.16
35 | HMAEMRYLDQIYEVNVPLPDLSLEDGDLLARWAVNFHQRYEELFSYRQSDQEIRLVTLRVTVLGELP | -0.65
36 | HMAENMNAALRVSSLINQIGTVNAKAKDRIESARKAYDALSEAQKAYVANLTTLETAETSLSKL | 0.0786
37 | HMAENTIPSVIGKTLSDATFLLESYGYERGGVSEEYSEMPKGVVIRQSPQAGSSADPGTKVNLVVSLGEEI | 0.538
38 | HMAENTKKWDETGRRYRSYIKLEKRLSENTVESYMRDYMQFAHFILRQWDVAPHKVEPQMVERYMAWLYER | -0.795
39 | HMAEPIAAGKYTVSTSGSVLNMRVSPDADSQVLEKIPNGTIVEVTKSVLGWAYVTYNSAQGWVSSAYLV | -1.62
40 | HMAEPLMTQIVEIEYADAEGLRENLEQFLTRLDEKTLLGSVLVDRHTNSLIIQAVRSDLERMLPLIETLDR | -0.804
41 | HMAEPLYKQVKNKIIQNLTSDEWKPGSVIPSETKLAETYGVGVSTIRMAIGELVAARILIRRQGKGTFVSS | -2.1
42 | HMAEQDILQSVYPHIGGQDNVSRTISRNGTLYLMLKDASAVDLKAVKQVPGIADAALERGRLTLQLEE | -0.203
43 | HMAEQLGNSRTANMVMLGAMIERTGVISIDSAMEALKATFGPKKEHLLPINRQAMEAGAAAARAV | 0.104
44 | HMAERVWASLLEIKNAVAIEDAKTLEDVDNSEKIAEERIAALNDDAKHPLAIAFIGKLRQDIAEKKIELA | 0.413
45 | HMAESSPYTVRPGDTLWKILAQTQNARYNDFPYLYRKFRELNPNITDLNHIVSGQKIIVPHIPG | -0.331
46 | HMAESTRSRILNAAIEMMETGGESSVRLSAIAEALGIKEPSIYHHFTNRTELVNAAYIEWYW | -1.07
47 | HMAEVDREEALRIALAHAAVARRDVRNLKIERGEENGVPVYKVEFETAFGDFDVAVSRRSGDVVDAD | -0.0382
48 | HMAEVIYGAGKTPAQMLGILRTMQAHGQKTVLITRLREEAAEEIGREIPLQYDKTAGVGIVGTLPQPDG | -0.102

Row | Sequence | soluble fraction (log2)
49 | HMAEVPSLIGKSLDAAKQAIIDAGFKVGSVSYDNSDSYGKGQVMWQQYEPSTKVKKGSSISIKVSKGS | -0.00107
50 | HMAEVRTLLVPIELAGMRFDQVLAELLPEFSRSRLAAWIKSGDALLDGHDAKPKGVVRGGEQIEIRLA | -0.0127
51 | HMAFAVWVKLVAIGPNYAQLEIEQGTQRNVRTLRPGDDAPEGVRLLSLTPTHAEVQANGIARKLALGQGMA | -3.22
52 | HMAFDESLVRSIQELLSELGYSPGKIDGLLGAKTVAAIKAFELEINKDQLTGEPSEELLIALQLAIRSSKM | -1.81
53 | HMAFDGIVLKNITNALKELINGKINKIQQSSKDNLTLSIYNQKSYNLYIDISANNYRVNLTTHSE | 0.126
54 | HMAFDYETYQLTSREFSIIELVADGRSNREIAEALYLGEGTVRNYLSSILEKLELRDRTQLAVFFYQHL | -2.3
55 | HMAFIEIMTEGDADGRGFQYPIPTYSITRDFDWSETENNKLLFEMTAKYGTPYFSNYINSDMEPSDV | -1.13
56 | HMAGAITEREVEVLELLSRGLGNKEIAKELFVSEATVKSHLSHIYTKLAVDTRAGAVAAAIERRIIRAWR | -2.99
57 | HMAGASQAVKAQLRLREMILAGELPGGARIAELTLVEKLGVSRTPIRAALMRLEQEGLLHRLPGGGYAVRT | -2.27
58 | HMAGDDEIEKIAQDILAAWPDKVAAYQAGNKGLMGLFMGELMKKSQGKANPKVASGIIQKLLD | 0.0201
59 | HMAGEDPANLELMRLMDEEYMEHPTKGVLGMVDFLRALGILTGPKRVRRLLRKMGIMAIYPK | 0.159
60 | HMAGGVFELTGKVTADAKAGDLVYVKAATGAGTKPVVTTVKTGADVIIGWLKEPVSSASVDQKMQVVLA | 0.267
61 | HMAGITLHAEEGRVRIRSQSEGLVKVLDAMGREQASWPLRSKGWWFFLTEGWAPGTYFVKTESGETQRFLV | 0.274
62 | HMAGNNTATKEIAELLIAKGADVNAMNLSPPGREIGGMTPLDMAILGNRNEIADLLRKHGGRTQKELKAE | 0.262
63 | HMAGPGAEVVDRLIAVLTGERPATAADQVLLSILKGLGIGGVVLPSERTGLGWSGLYQRVKEITDMN | -1.61
64 | HMAGPRRRLLDAAIDRAAERGLGDLSLRALAEELGTSHRMLSHHFGSKDGLWLAIVEEVERRQ | -1.08
65 | HMAGSTAASKHALALLNTARHSIRDGNLTSAAAEIKQALATSQEQIVITEARSLMTAMEARATTRRATVLQ | -0.41
66 | HMAGTAMRATTAVNVRSGAGTNYSRIGLLQAGEQIQALSSKNGWTQVSYKGRTGYVASAYLASL | -2.57
67 | HMAGTGKVNTGVANVRSGPGTNYEISGKIYADTEVSILETSNGWYKIKFGNLTGWMSGTVLDIK | -0.902
68 | HMAGTPAVVKWFNPTKGFGFVTPREAGSDALLHASVLAKQGKRWLQEGTVVEVVLEEGPKGLVVSEVLTIE | -0.457
69 | HMAGWMPGGTNPAEPGRFAVLMDVDDSDAYKHMFLRWNGHAWEFERTRVLVKMEPSWWMRLPDDPEKP | -3.16
70 | HMAHKRVDGTIVTPLTADTIVLRTGTHGEQPFEIRDTTRHKLESLQKGDMVILLIDTDNKVIDVAIPP | 0.373
